The values that follow come from US20040109827A1, “Powdery preparations and proecss for producing the same” (priority 2000, published 2004).

This data set is described as follows: Cascade impactor (Andersen sampler) analysis of powder formulations as a model of artificial airways and lung. To be noted: Table 9.

Experimental: In order to investigate aerodynamic particle diameters of powders, examination was carried out using a cascade impactor as a model of artificial airways and lung. The main body comprises 8 stages and a final filter superposed on top of another in combination with a flow meter and a suction pump. The method described in “Multistage Cascade Impactor Apparatus” in USP 2000 “Physical Tests and Determinations/Aerosols” was basically employed. A specific condition is as described below.
Suitable amounts of the formulations were filled into the No. 2 capsules specified by the Japanese Pharmacopoeia and placed on the device.
These formulations were analyzed using a cascade impactor. […] These RF values are obtained by weighing the powders collected at each stage and dividing the amounts collected at stages 2 to 5 by a total amount of finely ground substances contained in the formulations.
These formulations were analyzed using a cascade impactor. […] These RF values are obtained by quantifying by HPLC the glucagon in formulations collected at each stage and dividing the amounts of glucagon at stages 2 to 5 by the total amount of glucagon contained in the encapsulated formulations. Conditions for HPLC analysis are as shown below.
These formulations were filled into the No. 2 capsules specified by the Pharmacopoeia of Japan and analyzed using the following device.

In the case of glucagon, where the note is “No. 2 capsule, Jet-haler, suctioning for 10 seconds”, the Retention in capsule entry was “Almost all formulations remained due”. Where the note is “glucagon by HPLC at stages 2 to 5 / total glucagon in encapsulated formulations, lactose carrier Pharmatose 325 M”, this substance yielded an RF value of 0%.
